This note sets out measurements from patent publication US20250011363A1, “OPTIMIZED SHORTENED PEPTIDE THAT BINDS TO ACETYLCHOLINE RECEPTOR, AND USE THEREOF” (SKINMED CO., LTD., priority 2021, published 2025).

For this test, the target named is acetylcholine receptor (Homo sapiens, UniProt P02708). Put plainly: SPR binding affinity (RU) of optimized 5mer/6mer/7mer peptides, Examples 6-7. Summed up:
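Response units from SPR give the binding values listed. Each synthesized peptide was run at 10 μM over the receptor.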

The mark [1] stands for this setting: 6mer-1 Top sequence; SPR; peptides tested at 10 μM.
Setting [2] is: SPR, peptides tested at 10 μM; 6mer-1 Top sequence.

Sequence of acetylcholine receptor (P02708 21-457): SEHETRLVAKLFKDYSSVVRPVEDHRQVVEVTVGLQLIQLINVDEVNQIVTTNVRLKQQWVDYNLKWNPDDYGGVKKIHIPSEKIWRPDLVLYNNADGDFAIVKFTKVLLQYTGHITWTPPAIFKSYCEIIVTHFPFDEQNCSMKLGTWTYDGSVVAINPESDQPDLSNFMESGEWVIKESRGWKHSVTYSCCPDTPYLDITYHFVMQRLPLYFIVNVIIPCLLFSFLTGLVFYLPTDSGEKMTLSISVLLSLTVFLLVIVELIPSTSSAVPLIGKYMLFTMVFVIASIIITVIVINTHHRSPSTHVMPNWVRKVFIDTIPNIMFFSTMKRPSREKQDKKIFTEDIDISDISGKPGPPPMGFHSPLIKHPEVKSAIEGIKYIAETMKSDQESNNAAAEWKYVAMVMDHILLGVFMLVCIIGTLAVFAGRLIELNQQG

Take 6mer-1-328 (KRWLQK): the Binding affinity under setting [1] was 151 Ru. Consider 6mer-1-329 (RKWRQK), for which the Binding affinity under setting [1] is on record as 123 Ru. The same measure, in the same setting: under 6mer-1-330 (RKVQRK) stands 148 Ru; under 6mer-1-331 (RKRITR), 128 Ru. In the case of 6mer-1-332 (KKRVQK), under setting [1], the Binding affinity was 122 Ru. Take 6mer-1-333 (RKRQSR): the Binding affinity under setting [1] is recorded as 135 Ru. Turning to 6mer-1-334 (RRRRLR), the Binding affinity under setting [1] was found to be 154 Ru. For the substance 6mer-1-335 (RRSQRR), under setting [1], the Binding affinity came to 148 Ru. Still for that read-out and setting: as for 6mer-1-336 (KRVVTK), the figure is 154 Ru; as for 6mer-1-337 (RKSRRR), 144 Ru. As for 6mer-1-338 (KKQVLK), under setting [1], the Binding affinity was 127 Ru. As to 6mer-1-339 (KKSIQK), under setting [1], the Binding affinity was 147 Ru. As for 6mer-1-340 (KRLLCK), the Binding affinity under setting [1] was found to be 142 Ru. As for 6mer-1-341 (RKQQQR), the Binding affinity under setting [1] stood at 128 Ru.

6mer-1-342 (RKRFCR): the Binding affinity under setting [1] worked out at 131 Ru. In the case of 6mer-1-343 (KKLYTK), the Binding affinity under setting [1] stood at 135 Ru. As for 6mer-1-344 (KKSQCR), the Binding affinity under setting [1] is recorded as 125 Ru. On to 6mer-1-345 (KKLLCR), for which the Binding affinity under setting [1] came to 147 Ru. For the substance 6mer-1-346 (KKRIYR), the Binding affinity under setting [1] came out at 123 Ru. Turning to 6mer-1-347 (KKQQSK), the Binding affinity under setting [1] was found to be 126 Ru. For the substance 6mer-1-348 (RKQRLK), under setting [1], the Binding affinity amounted to 142 Ru. Same read-out and setting: as for 6mer-1-349 (KRLYSK), the figure is 123 Ru; as for 6mer-1-350 (KKLQTK), 153 Ru. Turning to 6mer-1-351 (RRGLRK), under setting [1], the Binding affinity came to 141 Ru.

For the substance 6mer-1-352 (RKVFRK), under setting [1], the Binding affinity is reported as 142 Ru.

Take 6mer-1-353 (KRLYLK): the Binding affinity under setting [1] is on record as 126 Ru. 6mer-1-354 (KKVFLK): the Binding affinity under setting [1] was 153 Ru. The same measure, in the same setting: under 6mer-1-355 (RKVFYR) stands 148 Ru; under 6mer-1-356 (KRGYSK), 153 Ru. As for 6mer-1-357 (KRRQTR), under setting [1], the Binding affinity is on record as 148 Ru. Same read-out and setting: under 6mer-1-358 (KRRYTR) stands 124 Ru; under 6mer-1-359 (KRQFLR), 131 Ru. With 6mer-1-360 (KRVFLK), the Binding affinity under setting [1] was 148 Ru. Turning to 6mer-1-361 (RKSVQR), the Binding affinity under setting [1] is recorded as 127 Ru.

Turning to 6mer-1-362 (KRVVYK), under setting [1], the Binding affinity is listed as 133 Ru.

Consider 6mer-1-363 (KRQIRR), for which the Binding affinity under setting [1] was 121 Ru. In the case of 6mer-1-364 (RKRQSK), the Binding affinity under setting [1] amounted to 124 Ru. Consider 6mer-1-365 (KKRICK), for which the Binding affinity under setting [1] is 142 Ru. For 6mer-1-366 (KRWFCR), the Binding affinity under setting [1] stood at 133 Ru. Consider 6mer-1-367 (RKGFSK), for which, under setting [1], the Binding affinity was 154 Ru. In the case of 6mer-1-368 (RRRFSK), under setting [1], the Binding affinity is 145 Ru.

For the substance 6mer-1-369 (KKWYRK), the Binding affinity under setting [1] came to 144 Ru. As to 6mer-1-370 (RKQLYK), under setting [1], the Binding affinity stood at 142 Ru.

Consider 6mer-1-371 (KRSLTR), for which, under setting [1], the Binding affinity worked out at 153 Ru. On the same count and under the same terms, as for 6mer-1-372 (RKLRSK), the figure is 145 Ru. In the case of 6mer-1-373 (KRGVLK), under setting [1], the Binding affinity amounted to 149 Ru.

As to 6mer-1-374 (KKQFQK), the Binding affinity under setting [1] is reported as 148 Ru.

6mer-1-375 (RRVFYR): the Binding affinity under setting [1] was found to be 154 Ru. In the case of 6mer-1-376 (RRQLRK), the Binding affinity under setting [1] worked out at 121 Ru.

For 6mer-1-377 (KRWITR), the Binding affinity under setting [1] worked out at 148 Ru.

On to 6mer-1-378 (KRSLQK), for which, under setting [1], the Binding affinity came to 153 Ru. Regarding 6mer-1-379 (KRRISK), the Binding affinity under setting [1] is 153 Ru. As to 6mer-1-380 (KRLQLR), the Binding affinity under setting [1] worked out at 121 Ru.

For 6mer-1-381 (RKGFYR), under setting [1], the Binding affinity worked out at 124 Ru.

Take 6mer-1-382 (KRQYTR): the Binding affinity under setting [1] was determined as 139 Ru. Regarding 6mer-1-383 (RKRRTK), the Binding affinity under setting [1] is 148 Ru. For 6mer-1-384 (RKVICK), the Binding affinity under setting [1] is 148 Ru. 6mer-1-385 (KRQVLR): under setting [1], the Binding affinity is reported as 127 Ru. In the case of 6mer-1-386 (RRSYQK), the Binding affinity under setting [1] stood at 127 Ru.

6mer-1-387 (KKGRLR): under setting [1], the Binding affinity was 148 Ru. Turning to 6mer-1-388 (RRLLQR), under setting [1], the Binding affinity was found to be 142 Ru. On the same count and under the same terms, as for 6mer-1-389 (RKLFCK), the figure is 125 Ru; as for 6mer-1-390 (RKLQQR), 121 Ru. Take 6mer-1-391 (RRQRCK): the Binding affinity under setting [1] is 131 Ru. 6mer-1-392 (RRVQTR): the Binding affinity under setting [1] is given as 135 Ru. For the substance 6mer-1-393 (KRLYYK), the Binding affinity under setting [1] worked out at 148 Ru. 6mer-1-394 (KKVRRR): the Binding affinity under setting [1] was 149 Ru.

With 6mer-1-395 (KKRQTK), under setting [1], the Binding affinity worked out at 125 Ru. For the substance 6mer-1-396 (KRQIQK), the Binding affinity under setting [1] turned out to be 148 Ru.

For 6mer-1-397 (KRLILR), under setting [1], the Binding affinity is listed as 125 Ru.

With 6mer-1-398 (KKQYYR), under setting [1], the Binding affinity is on record as 137 Ru. With 6mer-1-399 (KRWILR), the Binding affinity under setting [1] worked out at 125 Ru. On the same count and under the same terms, under 6mer-1-400 (KRWQTK) stands 123 Ru; under 6mer-1-401 (RRLYCR), 127 Ru.

On to 6mer-1-402 (RRRVLR), for which, under setting [1], the Binding affinity came out at 153 Ru. For 6mer-1-403 (KRSQTK), the Binding affinity under setting [2] is recorded as 153 Ru. As to 6mer-1-404 (KKQRQK), the Binding affinity under setting [2] came to 137 Ru. Same read-out and setting: under 6mer-1-406 (RKVLLR) stands 153 Ru. Take 6mer-1-407 (KRLRTR): the Binding affinity under setting [2] is recorded as 153 Ru. In the case of 6mer-1-408 (KRGRSR), the Binding affinity under setting [2] is 147 Ru.

Consider 6mer-1-409 (RRWISR), for which, under setting [2], the Binding affinity amounted to 144 Ru.

As to 6mer-1-410 (KRVLRK), the Binding affinity under setting [2] is on record as 148 Ru. On to 6mer-1-411 (RRQRSR), for which, under setting [2], the Binding affinity was 121 Ru.

With 6mer-1-412 (RKSILK), under setting [2], the Binding affinity is 139 Ru. Turning to 6mer-1-413 (RKQFCR), the Binding affinity under setting [2] is given as 148 Ru.

Take 6mer-1-414 (KRSFLR): the Binding affinity under setting [2] is on record as 153 Ru. With 6mer-1-415 (RRGVCR), the Binding affinity under setting [2] was found to be 135 Ru.

Turning to 6mer-1-416 (RKLIYR), the Binding affinity under setting [2] was 153 Ru. Still for that read-out and setting: as for 6mer-1-417 (RKSVCK), the figure is 139 Ru; as for 6mer-1-418 (RRQVRK), 123 Ru. On to 6mer-1-419 (KRGFYR), for which the Binding affinity under setting [2] came to 148 Ru. Consider 6mer-1-420 (KKGQYK), for which the Binding affinity under setting [2] turned out to be 148 Ru. In the case of 6mer-1-421 (RKVLYR), the Binding affinity under setting [2] is recorded as 135 Ru. On to 6mer-1-422 (KRVRQR), for which, under setting [2], the Binding affinity amounted to 154 Ru. Regarding 6mer-1-423 (RRGYCK), the Binding affinity under setting [2] is 147 Ru. With 6mer-1-424 (RRRIYR), the Binding affinity under setting [2] came to 135 Ru. For 6mer-1-425 (RKGVQK), the Binding affinity under setting [2] came to 131 Ru. In the case of 6mer-1-426 (KKGQYR), under setting [2], the Binding affinity came out at 131 Ru. For the substance 6mer-1-427 (KRWVLR), the Binding affinity under setting [2] was found to be 147 Ru. Still for that read-out and setting: under 6mer-1-428 (KRVVLR) stands 139 Ru; under 6mer-1-429 (RRQRRK), 135 Ru.

For the substance 6mer-1-430 (KKQLQK), the Binding affinity under setting [2] turned out to be 144 Ru. As for 6mer-1-431 (RRRFRR), the Binding affinity under setting [2] stood at 144 Ru. Same read-out and setting: as for 6mer-1-432 (RKGIQK), the figure is 139 Ru; as for 6mer-1-433 (RKQQYR), 154 Ru. With 6mer-1-434 (KRWVCR), under setting [2], the Binding affinity is 137 Ru. In the case of 6mer-1-435 (RKWRCK), under setting [2], the Binding affinity was determined as 135 Ru. As for 6mer-1-436 (KKLFYK), the Binding affinity under setting [2] is given as 148 Ru.

Take 6mer-1-437 (RKWFLK): the Binding affinity under setting [2] was 131 Ru. Regarding 6mer-1-438 (RRGFQK), the Binding affinity under setting [2] is given as 142 Ru.

As to 6mer-1-439 (KRRQTK), the Binding affinity under setting [2] is 121 Ru. 6mer-1-440 (KRVYSK): the Binding affinity under setting [2] turned out to be 153 Ru. For 6mer-1-441 (RRVYYR), the Binding affinity under setting [2] was 146 Ru. As for 6mer-1-442 (RKLQYK), the Binding affinity under setting [2] worked out at 131 Ru.

6mer-1-443 (RKVLLK): the Binding affinity under setting [2] amounted to 145 Ru. For 6mer-1-444 (KKWILK), the Binding affinity under setting [2] came to 144 Ru. Regarding 6mer-1-445 (KRVRLR), the Binding affinity under setting [2] was determined as 145 Ru. For 6mer-1-446 (RRVIRR), under setting [2], the Binding affinity worked out at 124 Ru. Consider 6mer-1-447 (RRRQQK), for which, under setting [2], the Binding affinity was determined as 146 Ru. On the same count and under the same terms, as for 6mer-1-448 (RKRFSR), the figure is 141 Ru; as for 6mer-1-449 (KRGRCK), 135 Ru. With 6mer-1-450 (RKVVYK), the Binding affinity under setting [2] came out at 151 Ru. Consider 6mer-1-451 (RKVRLR), for which the Binding affinity under setting [2] worked out at 153 Ru. Take 6mer-1-452 (KRLYTR): under setting [2], the Binding affinity came to 141 Ru.

For 6mer-1-453 (KKWQQK), the Binding affinity under setting [2] was determined as 154 Ru. For 6mer-1-454 (RKVLRR), the Binding affinity under setting [2] is reported as 124 Ru. Regarding 6mer-1-455 (RRVFYK), the Binding affinity under setting [2] was 126 Ru. On the same count and under the same terms, under 6mer-1-456 (RRGQYR) stands 153 Ru; under 6mer-1-457 (RKLLCR), 121 Ru. Consider 6mer-1-459 (RRWVYK), for which the Binding affinity under setting [2] amounted to 131 Ru. Turning to 6mer-1-460 (RRGFYR), under setting [2], the Binding affinity is 148 Ru. On to 6mer-1-461 (RRGYTR), for which the Binding affinity under setting [2] is recorded as 142 Ru.
